Where a chain is given by its changes, count along the chain named.
B1: M0102-C02 (Fab, V domains shown)
VH: EVQLLESGGGLVQPGGSLRLSCAASGFTFSHYLMHWVRQAPGKGLEWVSSIYPSGGKTQYADSVKGRFTISRDNSKNTLYLQMNSLRAEDTAVYYCARVFGYYDFWSGYPGAFDYWGQGTLVTVSS
VL: DIQMTQSPSSLSASVGDRVTITCRASQGISSSLAWYQQKPGKVPKLLIYAASTLQSGVPSRFSGSGSGTDFTLTISSLQPEDFATYYCQQSYSTPWTFGQGTKVEIKR
B2: M0112-D04 (Fab, V domains shown)
VH: EVQLLESGGGLVQPGGSLRLSCAASGFTFSHYVMVWVRQAPGKGLEWVSGIRSSGGVTAYADSVKGRFTISRDNSKNTLYLQMNSLRAEDTAMYYCARVGVWYGMDVWGQGTTVTVSS
VL: AQSALTQPLSVSVALGQTARITCGGNNIGSKNVHWYQQKPGQAPVLVIYRDSNRPSGIPERFSGSNSGNTATLTISGAQAGDEADYYCQVWDSSTVFGGGTKLTVLG
B3: M0108-E10 (Fab, V domains shown)
VH: EVQLLESGGGLVQPGGSLRLSCAASGFTFSRYRMVWVRQAPGKGLEWVSSIYPSGGYTKYADSVKGRFTISRDNSKNTLYLQMNSLRAEDTAVYYCARVITYNNFDSWGQGTLVTVSS
VL: DIQMTQSPGTLSLSPGERATLSCRASQTVSSTYLAWYQQKPGQAPRLLIYGASSRATGIPDRFSGGGSGTDFTLTISRLEPEDFAVYYCQQYGSSPPRYTFGQGTKLEIKR
B4: M0104-D12 (Fab, V domains shown)
VH: EVQLLESGGGLVQPGGSLRLSCAASGFTFSHYAMFWVRQAPGKGLEWVSSIWPSGGKTMYADSVKGRFTISRDNSKNTLYLQMNSLRAEDTATYYCARGGSYLAFDIWGQGTMVTVSS
VL: DIQMTQSPSSLSASVGDRVTITCRASLSVSGYLNWYQHKPGRAPNLLIYATSSLQSGVPSRFSGSGSGTDFTLTVSSLQPEDLATYYCQQSYSSPYTFGQGTKVEIKG
B5: M0116-E08 (Fab, V domains shown)
VH: EVQLLESGGGLVQPGGSLRLSCAASGFTFSRYPMIWVRQAPGKGLEWVSVIYPSGGMTKYADSVKGRFTISRDNSKNTLYLQMNSLRAEDTAVYYCARVGSYGSLGYWGQGTLVTVSS
VL: DIQMTQSPSSLSASVGDRVTITCLASQSISSYLNWYQQKPGKAPKLLIYDASSLESGVPSRFSGSGSGTDFTLTISSLQPEDFAIYYCQQFNGYPPITFGQGTRLEIKR
B6: M0102-D07 (Fab, V domains shown)
VH: EVQLLESGGGLVQPGGSLRLSCAASGFTFSRYWMWWVRQAPGKGLEWVSSIGPSGGATRYADSVKGRFTISRDNSKNTLYLQMNSLRAEDTAVYYCTTGSAGNWGQGTLVTVSS
VL: DIQMTQSPGTLSLSPGERATLSCGASQSVSTTYIAWYQHKPGQPPRLLIYGASNRATGIPDRFRGSGSGTDFTLTISRLEPEDFAVYYCQQYGSSPYTFGQGTKLEIKR
B7: M0103-H07 (Fab, V domains shown)
VH: B4 VH with A33G, F35Y, W52Y, K57W, M59N, T93V, G99R, Y102W, L103G
VL: DIQMTQSPSSLSASVGDRVAITCRASQSIDTYLNWYQQKPGKAPKLLIYAASKLEDGVPSRFSGSGTGTDFTLTIRSLQPEDFATYYCQPYNTYPITFGQGTRLEIKR
B8: M0116-A08 (Fab, V domains shown)
VH: EVQLLESGGGLVQPGGSLRLSCAASGFTFSYYMMGWVRQAPGKGLEWVSSIYTSGGYTKYADSVKGRFTISRDNSKNTLYLQMNSLRAEDTAVYYCARASIYYGMDVWGQGTTVTVSS
VL: DIQMTQSPGTLSLSPGERATLSCRASQSVSNSYLAWYQQRPGQAPRLLIYGASSRATGIPDRFSGSGSGTEFTLTISRLEPEDFAVYYCQQFGSSTGYTFGQGTKLELKR
B9: M0106-D06 (Fab, V domains shown)
VH: EVQLLESGGGLVQPGGSLRLSCAASGFTFSYYLMGWVRQAPGKGLEWVSSIGPSGGTTKYADSVKGRFTISRDNSKNTLYLQMNSLRAEDTAVYYCARRGLGAAFDYWGQGTLVTVSS
VL: B1 VL with L11V, S32W, V43A, T53S, S91A, Y92N, T94F, W96Y, V104L
B10: M0113-D05 (Fab, V domains shown)
VH: EVQLLESGGGLVQPGGSLRLSCAASGFTFSHYIMMWVRQAPGKGLEWVSSIYPSGGSTIYADSVKGRFTISRDNSKNTLYLQMNSLRAEDTAVYYCASATEGYYYGMDVWGQGTTVTVSS
VL: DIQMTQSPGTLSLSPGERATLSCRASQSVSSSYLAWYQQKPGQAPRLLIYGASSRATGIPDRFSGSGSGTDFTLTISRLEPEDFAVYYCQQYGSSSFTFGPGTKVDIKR
B11: M0110-D06 (Fab, V domains shown)
VH: EVQLLESGGGLVQPGGSLRLSCAASGFTFSWYRMAWVRQAPGKGLEWVSYIGPSGGSTSYADSVKGRFTISRDNSKNTLYLQMNSLRAEDTATYYCARVGTFYGMDVWGQGTTVTVSS
VL: B1 VL with S10T, V15L, T20I, S30R, S32W, V43A, T53S
B12: M0124-C04 (Fab, V domains shown)
VH: B8 VH with Y31W, M33L, S50V, Y52G, T53P, Y57L, A99F, S100R, I101G
VL: not shown
B13: M0131-B05 (Fab, V domains shown)
VH: B2 VH with V35S, G50Y, R52Y, S53P, V57K, A59H, M93V
VL: AQYELTQPASVSGSPGQSITISCTGTSSDIGAYNYVSWYQQHPGKAPKLMIYDVSNRPSGVSNRFSGSKSGNTASLTISGLQAEDEADYYCSSYRSSSLMFGGGTKLTVLG
B14: M0131-D01 (Fab, V domains shown)
VH: EVQLLESGGGLVQPGGSLRLSCAASGFTFSHYNMNWVRQAPGKGLEWVSVIYPSGGQTHYADSVKGRFTISRDNSKNTLYLQMNSLRAEDTAVYYCARRGIWHSFDIWGQGTMVTVSS
VL: DIQMTQSPGTLSLSPGERASLSCRASQSVSSNYLSWYQQKPGQAPRLLIYGTSNRASGIPVRFSGSGSGTDFTLTISRLEPEDFAVYYCQQYGGAPLFIFGPGTRVDIKR
B15: M0132-C08 (Fab, V domains shown)
VH: B9 VH with Y31L, L33F, G35T, G52S, P53S, T57S, R99G, L101Q, G102W, A103L
VL: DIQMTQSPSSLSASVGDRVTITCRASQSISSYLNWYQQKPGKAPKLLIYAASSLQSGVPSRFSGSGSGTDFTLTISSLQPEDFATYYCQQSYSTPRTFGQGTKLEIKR

These binders were tested against T1, hK1 (human tissue kallikrein 1), recombinant (human, UniProt P06870 25-262) (assay: SPR).
T1 construct: Expressed in P. pastoris from KLK1 cDNA and purified; enzymatically active; also called KLK1; Recombinant (Pichia) Kallikrein

Point of comparison: B13, Kd 0.46 nM. Against it:
- B1 — 95-fold higher, 43.5 nM
- B2 — 120-fold higher, 54.2 nM
- B3 — 130-fold higher, 58.4 nM
- B4 — 130-fold higher, 61.3 nM
- B5 — 160-fold higher, 72.7 nM
- B6 — 170-fold higher, 78.6 nM
- B7 — 190-fold higher, 85.7 nM
- B8 — 190-fold higher, 88.3 nM
- B9 — 270-fold higher, 123 nM
- B10 — 330-fold higher, 152 nM
- B11 — 500-fold higher, 232 nM
- B12 — 810-fold higher, 372 nM
- B14 — 2.3-fold higher, 1.04 nM
- B15 — 2.8-fold higher, 1.3 nM

Point of comparison: B2, koff 0.00956 s⁻¹. Against it:
- B1 — 1.5-fold lower, 0.00628 s⁻¹
- B3 — within 1.5-fold, 0.0134 s⁻¹
- B4 — 2-fold higher, 0.0192 s⁻¹
- B5 — 1.7-fold higher, 0.0164 s⁻¹
- B6 — within 1.5-fold, 0.0122 s⁻¹
- B7 — within 1.5-fold, 0.0086 s⁻¹
- B8 — within 1.5-fold, 0.00994 s⁻¹
- B9 — 2-fold higher, 0.019 s⁻¹
- B10 — 4.5-fold lower, 0.00214 s⁻¹
- B11 — 1.8-fold higher, 0.0175 s⁻¹
- B12 — 30-fold higher, 0.286 s⁻¹
- B13 — 82-fold lower, 0.000117 s⁻¹
- B14 — 29-fold lower, 0.000325 s⁻¹
- B15 — 22-fold lower, 0.000444 s⁻¹

Point of comparison: B5, kon 225000 M⁻¹ s⁻¹. Against it:
- B1 — 1.6-fold lower, 144000 M⁻¹ s⁻¹
- B2 — within 1.5-fold, 176000 M⁻¹ s⁻¹
- B3 — within 1.5-fold, 230000 M⁻¹ s⁻¹
- B4 — within 1.5-fold, 314000 M⁻¹ s⁻¹
- B6 — within 1.5-fold, 155000 M⁻¹ s⁻¹
- B7 — 2.2-fold lower, 100000 M⁻¹ s⁻¹
- B8 — 2-fold lower, 113000 M⁻¹ s⁻¹
- B9 — within 1.5-fold, 154000 M⁻¹ s⁻¹
- B10 — 16-fold lower, 14100 M⁻¹ s⁻¹
- B11 — 3-fold lower, 75600 M⁻¹ s⁻¹
- B12 — 3.4-fold higher, 768000 M⁻¹ s⁻¹
- B13 — within 1.5-fold, 255000 M⁻¹ s⁻¹
- B14 — within 1.5-fold, 311000 M⁻¹ s⁻¹
- B15 — 1.5-fold higher, 342000 M⁻¹ s⁻¹

Source: patent publication US7329737 (DYAX, dated 2008)
